According to article PMC5811407 (Thrombosis research, 2017):

What was measured:
[1] = target: soluble form of human VLDL receptor (human) (UniProt P98155); assay: SPR
[2] = target: human fibrin (human) (UniProt P02679); assay: ELISA
[3] = target: recombinant fibrin (β15-66)2 fragment (human); assay: ELISA
[4] = target: recombinant fibrinogen (Bβ1-66)2 fragment (human); assay: ELISA
[5] = target: soluble form of human VLDL receptor (human, UniProt P98155 28-797); assay: ELISA

Work on “recombinant fibrinogen (Bβ1-66)2 fragment (domain or fragment)” yielded a Kd [1] of 254 nM.

For “soluble form of human VLDL receptor (from UniProt P98155 28-797)”, the Kd [2] was 7.2 nM, the Kd [3] was 5.9 nM and the Kd [4] was 7.7 nM.

B1: human receptor-associated protein (natural protein, UniProt P30533 35-357, looked up)
chain: YSREKNQPKPSPKRESGEEFRMEKLNQLWEKAQRLHLPPVRLAELHADLKIQERDELAWKKLKLDGLDEDGEKEARLIRNLNVILAKYGLDGKKDARQVTSNSLSGTQEDGLDDPRLEKLWHKAKTSGKFSGEELDKLWREFLHHKEKVHEYNVLLETLSRTEEIHENVISPSDLSDIKGSVLHSRHTELKEKLRSINQGLDRLRRVSHQGYSTEAEFEEPRVIDLWDLAQSANLTDKELEAFREELKHFEAKIEKHNHYQKQLEIAHEKLRHAESVGDGERVSRSREKHALLEGRTKELGYTVKKHLQDLSGRISRARHNEL
B1: binds [5].
